Measurements from US20030092616A1, “STAT6 activation gene” (priority 2001, published 2003).

B1: 50 (nucleic acid, listed as Homo sapiens)
chain: AATTCAACATGGCAGCCATGCGCTGGCGATGGTGGCAGCGGCTGTTACCTTGGAGGTTGCTGCAGGCCCGTGGCTTTCCACAAAATTCTGCACCCAGCCTGGGCCTAAGAGCGAGGACTTATTCCCAGGGCGACTGCTCGTATTCGCGCACGGCGCTGTATGATCTGCTCGGCGTCCCCTCCACAGCCACGCAGGCCCAAATCAAGGCGGCTTACTACCGTCAGTGCTTTCTCTACCACCCGGACCGCAACTCCGGGAGCGCGGAGGCCGCCGAGCGCTTCACGCGCATCTCCCAGGCCTACGTGGTGCTGGGCAGTGCCACCCTCCGTCGCAAGTATGATCGCGGCCTACTCAGCGACGAGGACCTGCGCGGACCTGGCGTCCGGCCCTCCAGGACGCCCGCACCCGACCCCGGCTCGCCGCGTACCCCGCCGCCCACCTCTCGGACCCACGACGGTTCTCGGGCCTCCCCCGGCGCCAACCGCACGATGTTCAACTTTGACGCCTTCTACCAGGCCCACTACGGGGAACAACTGGAGCGGGAACGGCGCCTGAGGGCCCGGCGGGAGGCCCTTCGCAAACGGCAGGAGTATCGGTCCATGAAAGGCCTCCGCTGGGAGGATACCCGAGACACGGCTGCCATTTTCCTCATCTTTTCAATCTTCATCATCATCGGCTTTTATATTTAATCGGAGAGAGAAGGGAAGGGGAGTGTCCCCAGCCAACCCCCCAGAAACGGCCTTTTTTCCTGCCTCTGAACCCTTGGCCGTTGATAGTCTACCTTTGCTGGGATCCGAAGGAACTGTACTCCCCCTGCCCTCCCCGACCCGCCCAGCTTAGCCGATGACCTGCACATCGCTCCACTGTGGTCCAGAAAAGGAGGCCTTTCGATGTCTGAGAAAGAGGCCCCACGCTGTAGAGTCCCGAAAGCCCAGGAGTGAAGGGGGTTCCTGGAGTCTCTAGGGTGCTTCTTCCAGAGTCTGTCTTCTTGCTTCCAGATGTGGTCAACTTCTGGAACACTCGCTGTAGCTTTATTGTTTAGCCCCAAGCAAGATTTATCTCCTCCTGCCCCGCATGTGTATGGTGGGCCTCTGTAACCTTGAAATGTGCAATGTGACCAATTGTTGACTACCAAAAGAAAAGGTCTGGGGTTGT
modifications: CDS (9)..(686)
B2: 56 (nucleic acid, listed as Homo sapiens)
chain: AGAGCCGCCGCCCAGGAAGGGGATGCGGAAACCCCTGGCTCGGTGGAGCGGAGAGGCAGGCGGGCAGGAGCCGAGGACGGCATGTCCCAGGCCCCGGGAGCACAGCCGAGCCCACCCACCGTGTACCACGAACGGCAGCGCCTGGAGCTGTGTGCTGTCCACGCCCTCAACAACGTTCTGCAGCAGCAGCTCTTTAGCCAGGAGGCTGCCGATGAGATCTGCAAGAGGTTGGCCCCAGACTCCCGGCTGAACCCTCATCGCAGCCTCCTGGGCACCGGCAACTATGATGTCAATGTGATCATGGCCGCTCTGCAGGGGCTGGGCCTGGCCGCCGTGTGGTGGGACAGGAGGAGGCCCCTGTCCCAGCTGGCCCTGCCCCAGGTACTGGGGCTGATCCTGAACCTGCCCTCGCCCGTGTCGCTGGGGCTGCTGTCACTGCCGCTGCGCCGGCGGCACTGGGTGGCCCTGCGCCAGGTGGACGGTGTCTACTACAACCTGGACTCCAAGCTGCGGGCGCCCGAGGCCCTGGGGGATGAGGACGGAGTCAGGGCCTTCCTGGCGGCTGCGCTGGCCCAGGGCCTGTGCGAGGTGCTGCTGGTAGTGACCAAGGAGGTGGAGGAGAAGGGCAGCTGGCTGCGGACAGACTGACCATGGCTGACCATCGGCGCCCACAGCGCAGTCCCTGCGCATCCCCCTCCGGCTGCGCACACTGCATGCCTGGGAAAGGCCAGCACTTCATGGACCCTGGGGAGGCCCCGCCCCCTCCCCACACCCCTGCTCCCCACTGCCGCTGCTGCCTCAATAAATCTGCTGATTTGCTGCC
modifications: CDS (82)..(645)
B3: 241 (nucleic acid, listed as Homo sapiens)
chain: GGGGTGTCCAGTTGGTTGCCGCGGCAGTCTCTCCGAGCAGCGCATTTGTCTTCTAGGCTGCTTGGTTCGTGCCTCCGAGAAAGGGGTCTCCTGCTGCCAGCTAAGTGTGGGAGAACTTGTGCACGTATCTCCCCTCCGAATCCCAACGATGGGTAACGCCAGCTTTGGCTCCAAGGAACAGAAGCTGCTGAAGCGGTTGCGGCTTCTGCCCGCCCTGCTTATCCTCCGCGCCTTCAAGCCCCACAGGAAGATCAGAGATTACCGCGTCGTGGTAGTCGGCACCGCTGGTGTGGGGAAAAGTACGCTGCTGCACAAGTGGGCGAGCGGCAACTTCCGTCATGAGTACCTGCCGACCATTGAAAATACCTACTGCCAGTTGCTGGGCTGCAGCCACGGTGTGCTTTCCCTGCACATCACCGACAGCAAGAGTGGCGACGGCAACCGCGCTCTGCAGCGCCACGTTATAGCCCGGGGCCACGCCTTCGTCCTGGTCTACTCAGTCACCAAGAAGGAAACCCTGGAAGAGCTGAAGGCCTTCTATGAGCTGATCTGCAAGATCAAAGGTAACAACCTGCATAAGTTCCCCATCGTGCTGGTGGGCAATAAAAGTGATGACACCCACCGGGAGGTGGCCCTGAATGATGGTGCCACCTGTGCGATGGAGTGGAATTGCGCCTTCATGGAGATTTCAGCCAAGACCGATGTGAATGTGCAGGAGCTGTTCCACATGCTGCTGAATTACAAGAAAAAGCCCACCACCGGCCTCCAGGAGCCCGAGAAGAAATCCCAGATGCCCAACACCACTGAGAAGCTGCTTGACAAGTGCATAATCATGTGAGCCCTGGGCCTTAAGAGCCAGCTCTTCCTATCCTGTAGCGTGTAGAAAACGTGGACTCATTTCACTATGTTACATGTACATGGTTGATTTTGTGCTGTTGTTTGGACTGTAACATCCATGTTGTCAATACGTATACCTTGTAAGTGGATAACTTTTCTTTTTCCCAGGCCAGAGAATTCAAATTGTTAAAACATTGGCATTTGAAGAGGAGAACAAAATGTAGCATGATGTATTTAAAGTAAGGCCTTTAGTAATGAATGTAATGAGAGAAAATGTTTTGAAAAGAACAAAACATCAAAATGAATAGAAAGAAAAATTGGAAGGCGTCCTTTTGGTAACCCGATTATTGTGTATTACCTTTAAATATTTCACATCCTGTAAGTGCTTAATCATATCTTTTAATTGTGTATTTAAGAAAAGTGTTTTCACAACAAAAGCTTTTGATAAATTGCTGCGTGACATATACTAAATAAAAAAATGAATATGTTGATCATTAGGGGTGTGGGAGCAGAGAAAATTGTGAAAGTGACTCTCACTAAAGATGTTAGTAGTTTCTCATGTCATTTAAAAATGTTTGAGTATTCTGCATAGCAGTTTGTAAAAGTGTAACAGCTTATTGACTTAATAAAGCTTTTCCTGCATGC
modifications: CDS (149)..(835)

Test system: STAT6
Assay: Screening of full-length cDNA clones for promotion of STAT6 activation (luciferase reporter N4×8-luc)
Format: cell-based
Conditions: NIH3T3 cells cotransfected with N4×8-luc reporter and cDNA plasmid; 48 h culture, then mouse IL-4 0.5 ng/ml for 6 h
Description: As a preferable method, NIH3T3 cells are inoculated on 10% FBS (Fetal Bovine Serum)-containing IMDM medium in a 96-well cell culture plate to a final cell density of 1×10^4 cells/well, and cultured for 24 hours at 37° C., in the presence of 5% CO2. Then, the luciferase reporter plasmid N4×8-luc which has a STAT6 response sequence, and the expression vector are cotransfected into the cells in a well using FuGENE 6 (Roche). After 48 hours of culture at 37° C., in the presence of 5% CO2 mouse IL-4 (Immuno Biological Laboratories Co., Ltd.) is added to a final concentration of 0.5 ng/ml. After culturing for further 6 hours, promoting activity for STAT6 activation is then measured by measuring luciferase activity using a long term luciferase assay system, Picagene LT2.0 (Toyo Ink Mfg). For example, luciferase activity can be measured using PerkinElmer's Wallac ARVOTMST 1420 MULTILABEL COUNTER. The method for gene introduction by FuGENE6, and measurement of luciferase activity by Picagene LT2.0 can be performed respectively according to the attached protocols. In a method of gene introduction with a 96-well plate using FuGENE6, the amount of FuGENE6 per 1 well is suitably 0.3 to 0.5 μl, preferably 0.3 μl; the amount of N4×8-luc reporter plasmid is suitably 50 to 100 ng, preferably 100 ng; and the amount of expression vector is suitably 50 to 100 ng, preferably 100 ng. An ability (action) to promote STAT6 activation refers to an ability to increase the reporter activity (luciferase activity) relative to the control experiment (for cells into which the reporter gene and a null vector were introduced). Increase in reporter activity is preferably by a factor of 1.5 or more, more preferably by a factor of 3 or more, and still more preferably by a factor of 6 or more.
NIH3T3 cells (purchased from Dainippon Pharmaceutical) were grown to 1×10^4 cells/well in a 96 well plate for cell culture for 24 hours at 37° C. (in the presence of 5% CO2) using 10% FBS containing IMDM medium. Then, 100 ng of luciferase reporter plasmid N4×8-luc having a STAT6 response sequence and 2 μl of the full-length cDNA prepared in above Example 1.(3) were cotransfected into the cells in a well using FuGENE 6 (purchased from Roche) according to the manufacturer's protocol. The luciferase reporter plasmid N4×8-luc having the STAT6 response sequence was constructed as follows. […] 157, 2058-2065 (1996)], oligonucleotides having the following sequences were synthesized:
The synthesized oligonucleotides were dissolved in sterile water to be 1μg/μl, respectively, mixed in 10 μl lots, and adjusted the volume to 32 μl with sterile water. The solution was heated for 5 min at 90° C., and gradually cooled down to room temperature to prepare a double-stranded oligonucleotide solution. The solution was reacted with T4 polynucleotide kinase (Takara Shuzo) according to the attached manual, then the reaction product was purified in a usual manner. Separately, SV40 promoter region of pGL3-Promoter vector (Promega) was replaced by the HSV thymidine kinase promoter sequence (from −50 to +10) with Hind III site and BglII site to construct a vector tk-luc. The aforesaid double-stranded oligonucleotide fragments were inserted into the XhoI site of this tk-luc vector using T4 DNA ligase (GIBCO/BRL). The obtained clones were sequenced according to a usual method, and clones in which plural oligonucleotide fragments were inserted were selected. […] The four-interlinked DNA fragments were excised from the N4×4-luc with a XhoI and a BglII site and purified to be inserted into a BamHI and a XhoI site of pBluescript II KS+ (Stratagene). The four-interlinked DNA fragments were excised from this plasmid with KpnI and SpeI and inserted into a KpnI and a NheI site of N4×4-luc plasmid to finally obtain N4×8-luc.

Molecule	Activity = (luciferase activity of the gene of each SEQ ID NO:)/(luciferase activity of pME18S-FL3)
B1	18.5
B2	4.7
B3	54.3
